Test results published in patent publication US20240366728A1, “Treatment of Diabetes Mellitus” (Carmot Therapeutics Inc., priority 2023, published 2024).

Biological target: mouse GLP-1R (mouse) (UniProt O35659)
Assay: cell-based or functional assay

Chain of mouse GLP-1R (mouse) (O35659 22-463): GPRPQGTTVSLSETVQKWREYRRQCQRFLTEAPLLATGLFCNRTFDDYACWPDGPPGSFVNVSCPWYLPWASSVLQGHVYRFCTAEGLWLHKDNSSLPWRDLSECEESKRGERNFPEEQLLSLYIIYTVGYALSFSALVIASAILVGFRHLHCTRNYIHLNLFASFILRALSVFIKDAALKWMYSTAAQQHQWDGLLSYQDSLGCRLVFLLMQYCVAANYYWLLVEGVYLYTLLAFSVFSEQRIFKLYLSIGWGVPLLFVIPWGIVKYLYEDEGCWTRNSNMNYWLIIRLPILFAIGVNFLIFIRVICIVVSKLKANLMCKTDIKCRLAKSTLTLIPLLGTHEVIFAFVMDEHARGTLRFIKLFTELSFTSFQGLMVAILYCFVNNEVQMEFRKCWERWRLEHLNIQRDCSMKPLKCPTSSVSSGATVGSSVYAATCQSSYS

Row | mGLP-1R cAMP (-alb) % Emax | mGLP-1R β-arrestin-2 % Emax | cAMP accumulation EC50 | β-arrestin-2 recruitment | Substance
1 | 92% | 80.7% |  |  | Liraglutide (peptide)
2 |  |  | 3 pM | 99% | Human GLP-1 (7-36) (from UniProt P01275 21-180) (ligand)
